What was measured:
[1] = system: SKBR-3, SKOV-3, NCI-N87, ZR-75-30, HCC1419, or MDA-MB175; experiment: Induction of apoptosis in further cell lines; assay type: cell-based
human serum albumin = human serum albumin (Homo sapiens, UniProt P02768); experiment: Size exclusion chromatography coupled to static light scattering with human serum albumin; assay type: binding; settings: 30 μM Protein #21, 60 μM human serum albumin, 1:2 mixture in PBS
Method: Protein #21 was expressed and purified as described in Example 1. Size exclusion chromatography coupled to static light scattering (Superdex 200 10/300GL (GE Healthcare), Agilent 1200 (Life Technologies), Wyatt Optilab Trex (RI) and MiniDawnTreos (MALS)) was performed using 30 μM Protein #21, 60 μM human serum albumin (CSL Behring 20% solution was used to purify the monomeric fraction of human serum albumin by size exclusion chromatography on a Superdex 200 26/60 column (GE Healthcare)), or a 1:2 mixture of the two, in PBS.

[2] = Pharmacokinetic comparison of Protein #21 with Protein #33; assay type: in vivo; settings: variant lacking the C-terminal serum albumin binding domain
Source text: Many options are known in the art for pharmacokinetic engineering including PEGylation, polypeptide extension, Fc-fusion, serum albumin-fusion, and binding to serum albumin, amongst others (Kontermann, R (Ed.) “Therapeutic proteins: strategies to modulate their plasma half-lives”, Wiley-VCH Verlag GmbH, 2012, ISBN 978-3-527-32849-9). Starting from e.g. the combination of designed ankyrin repeat domains with binding specificity for HER2 comprising SEQ ID NOs: 16 and 17, there are hundreds of potential drug candidate variants (choice of pharmacokinetic modification engineering, choice of polypeptide linker (e.g. SEQ ID NOs: 2 to 9 amongst many others), amongst other aspects). […] Results of the effect of the choice of the polypeptide linker are shown e.g. in Example 10.
For the studies in this example Protein #21-His, Protein #24-His, Protein #28-His, Protein #29-His, and Protein #30-His were prepared according to Example 1. Protein #28-His was additionally PEGylated using a 40 kDa PEG moiety (NOF Sunbright GL2-400MA) by maleimid coupling of the PEG-moiety onto the free C-terminal cysteine of Protein #28-His, followed by purification to homogeneity using standard purification methods, procedures well known to the person skilled in the art. Pharmacokinetic analyses in mouse or cynomolgus monkey were performed as described in Examples 8 and 9.

HER1/EGFR = experiment: Phosphorylation state ELISA, BT474 cells; assay type: cell-based, human; settings: 100 nM, 18 hours
[3] = target: extracellular domains of EGFR (Homo sapiens, UniProt P00533); experiment: Surface plasmon resonance interaction with EGFR; assay type: binding
GXA281 = experiment: Gastric cancer PDX mouse model GXA281; assay type: in vivo; settings: FIG. 4E; Protein #21 40 mg/kg every three days for 6 times i.v.; Lapatinib 100 mg/kg/day for 21 days
Method: In a similar experiment, Protein #21 was further tested in the gastric cancer PDX mouse model GXA281, well known to the person skilled in the art, in comparison to the standard of care Lapatinib (FIG. 4E). Briefly, tumor implantation and tumor growth monitoring was done as described above. Lapatinib was dosed at 100 mg/kg/day for 21 days daily […]. and Protein #21 at 40 mg/kg every three days for 6 times i.v.

[4] = Storage stability in PBS analysed by size-exclusion chromatography; assay type: physicochemical; settings: 10 mg/ml in PBS
Method: A storage stability improvement is also observed, when testing the storage stability of Protein #21 and Protein #22 (recombinant binding proteins consisting of the amino acid sequences corresponding to SEQ ID NOs: 21 and 22, respectively). Protein #21 and Protein #22 are prepared as described in Example 1, samples are concentrated to 10 mg/ml in PBS and stored for 1 month at −80° C. in or at 40° C. in glass vials, followed by analysis on standard size-exclusion chromatography.

BT474 cells = experiment: BT474 cell proliferation, BrdU-labeling; assay type: cell-based, human; settings: cellular assays of Example 6 and screening
Method: Protein #21-His and Protein #23-His, were expressed and purified as described in Example 1. Effects of the recombinant binding proteins on BT474 cell proliferation were determined by measuring DNA synthesis using BrdU-labeling (BrdU, Cell Proliferation ELISA, Roche). Briefly, 10000 BT474 cells were seeded per well in a 96 well plate in 100 ul complete medium and incubated for 24 hours. Recombinant binding proteins or controls were added for an additional 72 hours. BrdU for cell labeling was added for the last 24 hours. Labeled (proliferating) cells were detected according to the manufactures protocol. The data were analyzed using the GraphPad prism software, plotting log [c] on the x-axis against OD450-602 nm on the y-axis. Data were fitted using a non-linear regression fit (log(antagonist) vs. response—Variable slope (four parameters)) deriving IC50 values.
Protein #21 and Protein #21-His were expressed and purified as described in Example 1. Standard BrdU cell proliferation assays were performed, well-known to the person skilled in the art. Briefly, effects on cell proliferation of Protein #21-His, other compounds, or Protein #21-His in combination with other compounds, were determined by measuring DNA synthesis using BrdU-labeling (BrdU, Cell Proliferation ELISA, Roche). Briefly, 10000 cells were seeded per well in a 96 well plate in 100 μl complete medium and incubated for 24 hours. Protein #21-His and/or compounds were added for an additional 72 hours. BrdU for cell labeling was added for the last 24 hours. Labeled (proliferating) cells were detected according to the manufactures protocol. The data were analyzed using the Graph Pad prism software (log [c] vs. OD450-602 nm plot). Data were fitted using a non-linear regression fit (log(antagonist) vs. response—variable slope (four parameters)).

B1: Protein #21: SEQ ID NO: 21; HER2 binding domains (SEQ ID NOs: 16, 17) flanked by two serum albumin binding domains (SEQ ID NO: 14), SEQ ID NO: 9 linkers (protein)
chain: GSDLGKKLLEAARAGQDDEVRELLKAGADVNAKDYFSHTPLHLAARNGHLKIVEVLLKAGADVNAKDFAGKTPLHLAANEGHLEIVEVLLKAGADVNAQDIFGKTPADIAADAGHEDIAEVLQKAAGSPTPTPTTPTPTPTTPTPTPTGSDLGIKLLFAAAKGQDDEVRELLKAGADVNAKDFQGVTPLHIAAQSGHLEIVEVLLKAGADVNAKDVTGDTPLHLAAQHGHLEIVEVLLKAGADVNAQDERGWTPADLAADWGHEDIAEVLQKAAGSPTPTPTTPTPTPTTPTPTPTGSDLGKKLLEAARAGQDDEVRELLKAGADVNAKDEYGLTPLYLATAHGHLEIVEVLLKAGADVNAVDAIGFTPLHLAAFIGHLEIAEVLLKAGADVNAQDKFGKTPADIAAGAGNEDIAEVLQKAAGSPTPTPTTPTPTPTTPTPTPTGSDLGKKLLEAARAGQDDEVRELLKAGADVNAKDYFSHTPLHLAARNGHLKIVEVLLKAGADVNAKDFAGKTPLHLAANEGHLEIVEVLLKAGADVNAQDIFGKTPADIAADAGHEDIAEVLQKAA
modifications: Protein comprising four designed ankyrin repeat domains
potency in inducing apoptosis in further cell lines [1]: high potency in inducing apoptosis
simultaneous binding of two serum albumin molecules (human serum albumin): can bind two serum albumin molecules simultaneously
pharmacokinetic properties compared to Protein #33 [2]: markedly improved pharmacokinetic properties, in particular a longer terminal half-life
HER1/EGFR Pan-Phospho-Tyrosine (HER1/EGFR): 0.40 fold change to PBS
interaction with extracellular domains of EGFR [3]: does not interact
inhibition of tumor growth (GXA281): strong inhibition of tumor growth compared to Lapatinib
monomeric species compared to Protein #22 ([4]; 1 month at 40° C.): significantly more monomeric species
elution profiles upon storage at −80° C. ([4]; 1 month at −80° C.): equivalent elution profiles
cellular potency (BT474 cells): high cellular potency
